Source: patent publication US20240376224A1 (University of California, published 2024)

Tests used:
[1] = biological target: T1, cleaved human CDCP1 on the cell surface (endogenous, PDAC cells) (human) (UniProt Q9H5V8); experiment: dose-response flow cytometry on PL5 cells; PL5 cells
T1 sequence 1: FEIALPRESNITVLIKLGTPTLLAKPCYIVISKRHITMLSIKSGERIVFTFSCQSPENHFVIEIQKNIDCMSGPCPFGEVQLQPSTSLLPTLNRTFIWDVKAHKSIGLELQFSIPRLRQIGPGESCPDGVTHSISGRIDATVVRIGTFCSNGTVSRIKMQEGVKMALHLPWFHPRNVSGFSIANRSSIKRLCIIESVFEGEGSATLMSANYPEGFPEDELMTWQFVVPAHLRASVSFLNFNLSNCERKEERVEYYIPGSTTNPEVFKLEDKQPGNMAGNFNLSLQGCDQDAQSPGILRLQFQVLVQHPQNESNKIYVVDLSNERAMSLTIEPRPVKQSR
T1 sequence 2: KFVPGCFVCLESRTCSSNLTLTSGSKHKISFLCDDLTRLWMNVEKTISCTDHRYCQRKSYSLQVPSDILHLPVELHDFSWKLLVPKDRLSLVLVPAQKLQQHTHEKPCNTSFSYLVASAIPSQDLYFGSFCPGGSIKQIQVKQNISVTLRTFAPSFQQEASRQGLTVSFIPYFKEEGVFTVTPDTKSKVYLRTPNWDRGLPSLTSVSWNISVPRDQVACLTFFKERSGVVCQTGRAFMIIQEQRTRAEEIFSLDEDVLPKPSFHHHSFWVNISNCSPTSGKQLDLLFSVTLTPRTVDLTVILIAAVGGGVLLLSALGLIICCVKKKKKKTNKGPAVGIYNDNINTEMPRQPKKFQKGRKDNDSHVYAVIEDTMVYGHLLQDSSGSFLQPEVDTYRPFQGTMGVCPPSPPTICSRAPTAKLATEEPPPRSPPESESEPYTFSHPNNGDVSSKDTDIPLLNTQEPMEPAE

[2] = biological target: T2, c-CDCP1-Fc (Cut 1) (human, UniProt Q9H5V8 30-365; Q9H5V8 366-667); experiment: BLI (Octet), table of in vitro binding affinities
T2 construct: Co-transfection of NTF and CTF-Fc plasmids; not shown: Fc domain
T2 sequence 1: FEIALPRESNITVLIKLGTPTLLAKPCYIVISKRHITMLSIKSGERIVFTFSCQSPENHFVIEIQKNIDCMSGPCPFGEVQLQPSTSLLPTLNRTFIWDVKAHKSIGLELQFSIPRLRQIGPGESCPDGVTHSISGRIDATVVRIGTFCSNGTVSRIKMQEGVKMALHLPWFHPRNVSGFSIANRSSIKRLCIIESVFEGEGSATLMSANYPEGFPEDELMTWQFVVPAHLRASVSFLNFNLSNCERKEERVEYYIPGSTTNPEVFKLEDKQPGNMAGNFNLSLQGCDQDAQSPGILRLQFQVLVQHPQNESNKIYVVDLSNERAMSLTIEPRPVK
T2 sequence 2: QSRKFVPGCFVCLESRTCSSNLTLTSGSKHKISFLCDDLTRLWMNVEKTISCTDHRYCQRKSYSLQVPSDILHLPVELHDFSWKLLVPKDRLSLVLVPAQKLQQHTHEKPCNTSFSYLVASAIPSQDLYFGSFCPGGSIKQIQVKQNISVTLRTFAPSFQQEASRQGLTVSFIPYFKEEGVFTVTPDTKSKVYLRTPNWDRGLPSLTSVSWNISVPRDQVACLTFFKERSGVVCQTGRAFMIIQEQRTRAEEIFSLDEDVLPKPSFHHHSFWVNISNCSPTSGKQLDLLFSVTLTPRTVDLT
Protocol: (§1) BLI experiments were performed using an Octet RED384 instrument (ForteBio). Biotinylated proteins were immobilized on a streptavidin (SA) biosensor and His-tagged proteins were immobilized on a Ni-NTA biosensor. Different concentrations of analyte in PBS pH 7.4+0.05% Tween-20+0.2% BSA (PBSTB) were used as analyte. Affinities (KDS) were calculated from a global fit (1:1) of the data using the Octet RED384 software.

[3] = biological target: T3, c-CDCP1-Fc (Cut 2) (human, UniProt Q9H5V8 30-368; Q9H5V8 369-667); experiment: BLI (Octet), table of in vitro binding affinities
T3 construct: Co-transfection of NTF and CTF-Fc plasmids; not shown: Fc domain
T3 sequence 1: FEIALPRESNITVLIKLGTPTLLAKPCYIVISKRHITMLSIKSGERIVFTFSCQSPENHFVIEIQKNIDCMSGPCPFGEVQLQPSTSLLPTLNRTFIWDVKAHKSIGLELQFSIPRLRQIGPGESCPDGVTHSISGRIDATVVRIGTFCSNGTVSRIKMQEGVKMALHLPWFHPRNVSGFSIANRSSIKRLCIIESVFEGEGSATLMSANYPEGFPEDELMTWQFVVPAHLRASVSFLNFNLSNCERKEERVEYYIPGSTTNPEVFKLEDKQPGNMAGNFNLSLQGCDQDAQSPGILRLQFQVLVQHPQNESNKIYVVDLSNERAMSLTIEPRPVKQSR
T3 sequence 2: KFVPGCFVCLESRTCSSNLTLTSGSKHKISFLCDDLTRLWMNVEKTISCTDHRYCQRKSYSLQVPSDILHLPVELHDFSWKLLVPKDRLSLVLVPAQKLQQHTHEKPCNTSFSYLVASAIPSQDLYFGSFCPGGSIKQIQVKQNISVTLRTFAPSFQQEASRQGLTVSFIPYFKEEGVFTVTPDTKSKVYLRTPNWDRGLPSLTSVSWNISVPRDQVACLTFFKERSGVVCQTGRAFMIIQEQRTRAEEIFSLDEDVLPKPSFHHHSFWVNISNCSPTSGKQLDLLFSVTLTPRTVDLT
Protocol: as §1

[4] = biological target: T4, c-CDCP1-Fc (Cut 3) (human, UniProt Q9H5V8 30-369; Q9H5V8 370-667); experiment: BLI (Octet), table of in vitro binding affinities
T4 construct: Co-transfection of NTF and CTF-Fc plasmids; not shown: Fc domain
T4 sequence 1: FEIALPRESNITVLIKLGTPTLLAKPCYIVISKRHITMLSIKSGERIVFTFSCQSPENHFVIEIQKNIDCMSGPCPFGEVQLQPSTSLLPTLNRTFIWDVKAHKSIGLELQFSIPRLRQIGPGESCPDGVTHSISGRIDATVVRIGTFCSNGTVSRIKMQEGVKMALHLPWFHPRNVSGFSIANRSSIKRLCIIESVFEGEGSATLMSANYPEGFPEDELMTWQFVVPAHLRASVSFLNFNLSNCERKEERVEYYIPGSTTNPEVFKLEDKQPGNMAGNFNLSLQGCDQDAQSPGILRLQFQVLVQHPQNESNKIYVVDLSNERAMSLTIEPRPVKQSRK
T4 sequence 2: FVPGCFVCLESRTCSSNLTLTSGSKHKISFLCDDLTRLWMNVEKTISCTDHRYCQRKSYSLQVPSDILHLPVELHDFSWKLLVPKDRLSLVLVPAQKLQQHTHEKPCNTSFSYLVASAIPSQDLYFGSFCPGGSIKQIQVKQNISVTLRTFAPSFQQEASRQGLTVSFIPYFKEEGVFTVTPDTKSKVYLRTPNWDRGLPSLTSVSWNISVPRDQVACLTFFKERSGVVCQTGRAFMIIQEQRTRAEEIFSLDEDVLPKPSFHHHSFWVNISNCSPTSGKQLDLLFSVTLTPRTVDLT
Protocol: as §1

EC50 [1]: 14.1 nM | Kd [2]: 0.84 nM | koff [2]: 0.000535 s⁻¹ | kon [2]: 640000 M⁻¹ s⁻¹ | Kd [3]: 0.37 nM | koff [3]: 0.000174 s⁻¹ | kon [3]: 473000 M⁻¹ s⁻¹ | Kd [4]: 0.15 nM | koff [4]: 7.43e-05 s⁻¹ | kon [4]: 492000 M⁻¹ s⁻¹
B1: CL03 IgG (antibody, V domains shown)
VH: EVQLVESGGGLVQPGGSLRLSCAASGFNFSSYSIHWVRQAPGKGLEWVASIYPYSGSTYYADSVKGRFTISADTSKNTAYLQMNSLRAEDTAVYYCARQSHSYYSHTWWVSYGMDYWGQGTLVTVSS
VL: DIQMTQSPSSLSASVGDRVTITCRASQSVSSAVAWYQQKPGKAPKLLIYSASSLYSGVPSRFSGSRSGTDFTLTISSLQPEDFATYYCQQSGQRPITFGQGTKVEIKR
notes: also called IgG CL03
